The results in this text go back to the RNAGym collection of RNA variant scans (doi:10.7554/elife.80360).

The chains are these.
B1: HDV Ribozyme (parent)
chain: GGCCGGCAUGGUCCCAGCCUCCUCGCUGGCGCCGGCUGGGCAACAUUCCGAGGGGACCGUCCCCUCGGUAAUGGCGAAUGGGACCCA

This data set covers variants of B1. As to the kind of experiment: self-cleavage, relative activity (ratio to wild type); higher = more cleavage; co-transcriptional.
For the variant G39C C58G, the self-cleavage turned out to be 0.277.

Take G40A A71U: the self-cleavage was determined as 0.796.

Turning to G40U C84A, the self-cleavage is 0.383.

As to G40U C84U, the self-cleavage turned out to be 0.398.

For G40U C84G, the self-cleavage was determined as 0.354.

With G39U C62U, the self-cleavage is 0.918.

In the case of G40A U79G, the self-cleavage worked out at 0.755.

Consider G40A U79A, for which the self-cleavage came out at 0.513.

For G40A U79C, the self-cleavage was 0.41.

Consider G39C G59U, for which the self-cleavage came to 0.147.

For G39U G50U, the self-cleavage worked out at 0.627.

G39U G50A: the self-cleavage came to 0.681.

As for G40C C75A, the self-cleavage came out at 0.0326.

With G40C C75G, the self-cleavage is 0.166.

In the case of G40C A87U, the self-cleavage is 0.325.

For the variant G40C A87C, the self-cleavage came to 0.245.

Take G40C G76U: the self-cleavage came to 0.346.

Consider G40C G82A, for which the self-cleavage turned out to be 0.233.

For G40C G82U, the self-cleavage amounted to 0.0978.

In the case of G40C G82C, the self-cleavage was found to be 0.188.

Take G39C C41G: the self-cleavage was found to be 0.462.

Turning to G39U G52A, the self-cleavage is 0.772.

Consider G39U G52U, for which the self-cleavage was 0.66.

For G40C G54A, the self-cleavage turned out to be 0.398.

G40C G54U: the self-cleavage came to 0.205.

Regarding G39U G54U, the self-cleavage worked out at 0.722.

In the case of G39U G54A, the self-cleavage was determined as 0.59.

Turning to G39C C63U, the self-cleavage came to 0.369.

For G39C C63A, the self-cleavage worked out at 0.259.

As to G40U A87C, the self-cleavage was 0.732.

With G40U A45G, the self-cleavage is 0.688.

Turning to G40U A45U, the self-cleavage was determined as 0.361.

Consider G40C G73U, for which the self-cleavage worked out at 0.233.

Turning to G39U C44U, the self-cleavage worked out at 0.211.

In the case of G39C G67U, the self-cleavage was determined as 0.277.

Turning to G39U U47A, the self-cleavage worked out at 0.554.

Take G39U U47G: the self-cleavage was 0.323.

For G40U A56C, the self-cleavage is 0.639.

On to G40A C62A, for which the self-cleavage worked out at 0.95.

As for G40A C62U, the self-cleavage was found to be 0.853.

On to G40U C44U, for which the self-cleavage came to 0.143.

Consider G40U C44A, for which the self-cleavage was 0.107.

For the variant G39C G55C, the self-cleavage was 0.31.

Turning to G39U G55A, the self-cleavage was determined as 0.831.

G39U G55U: the self-cleavage came to 0.677.

Consider G39U, for which the self-cleavage worked out at 0.727.

Consider G39U C66U, for which the self-cleavage was determined as 0.724.

With G40C C64G, the self-cleavage was determined as 0.242.

For the variant G40C C64A, the self-cleavage came out at 0.138.

For the variant G39C G54U, the self-cleavage is 0.222.

G39C G54C: the self-cleavage is 0.253.

In the case of G40U C61G, the self-cleavage came out at 0.534.

Consider G40U C61U, for which the self-cleavage turned out to be 0.631.

Take G40U C61A: the self-cleavage was 0.632.

Turning to G40C A56U, the self-cleavage was 0.381.

Regarding G39U C57G, the self-cleavage amounted to 0.786.

Regarding G40U C62A, the self-cleavage is 0.709.

In the case of G40U C62U, the self-cleavage was determined as 0.872.

Regarding G40A C48G, the self-cleavage was determined as 1.06.

Regarding G40A C48A, the self-cleavage came out at 0.941.

G40A C48U: the self-cleavage worked out at 0.793.

G39C G74U: the self-cleavage was determined as 0.251.

Regarding G39C G74C, the self-cleavage came out at 0.166.

G39U U79C: the self-cleavage worked out at 0.155.

Consider G39U U79G, for which the self-cleavage stood at 0.277.

In the case of G39U U79A, the self-cleavage was found to be 0.148.

On to G40U, for which the self-cleavage worked out at 0.717.

On to G40C, for which the self-cleavage was 0.299.

Consider G40A, for which the self-cleavage was determined as 0.962.

For the variant G40A G82A, the self-cleavage was determined as 0.358.

Turning to G39C G68A, the self-cleavage was 0.241.

As for G39C G68U, the self-cleavage came out at 0.246.

Consider G40A C75U, for which the self-cleavage was determined as 0.157.

As to G40A G53A, the self-cleavage stood at 0.882.

As to G40A G53C, the self-cleavage turned out to be 1.01.

Consider G40A G54U, for which the self-cleavage was determined as 0.971.

G40A G76A: the self-cleavage was 0.918.

In the case of G39C U47G, the self-cleavage was found to be 0.199.

With G40U A70U, the self-cleavage turned out to be 0.69.

In the case of G39U C84U, the self-cleavage was determined as 0.492.

With G40C C62G, the self-cleavage was 0.

With G40C C62A, the self-cleavage came out at 0.237.

In the case of G40C G55C, the self-cleavage was found to be 0.347.

As to G40C G55A, the self-cleavage stood at 0.121.

In the case of G40A C57G, the self-cleavage stood at 1.02.

Consider G40A C57U, for which the self-cleavage turned out to be 1.13.

Turning to G40A A43G, the self-cleavage stood at 0.623.

Regarding G40A C41G, the self-cleavage was found to be 0.937.

On to G40A C41A, for which the self-cleavage was determined as 0.893.

Consider G40C C85A, for which the self-cleavage is 0.128.

Take G40C C85U: the self-cleavage is 0.0804.

On to G40A A78U, for which the self-cleavage came out at 0.404.

Consider G40A A78G, for which the self-cleavage was 0.795.

As for G40C C84U, the self-cleavage worked out at 0.0852.

Consider G40C C84G, for which the self-cleavage was determined as 0.128.

Regarding G39U C58G, the self-cleavage stood at 0.506.

Turning to G39C G80C, the self-cleavage turned out to be 0.0845.

Regarding G39C G80A, the self-cleavage came to 0.0511.

As to G40A A42C, the self-cleavage came to 0.543.

As to G39C C62U, the self-cleavage worked out at 0.237.

For G39C U79C, the self-cleavage was 0.125.

G39C U79G: the self-cleavage was found to be 0.196.

Take G40A C64G: the self-cleavage worked out at 0.531.

Regarding G40A C64A, the self-cleavage worked out at 0.89.

As to G39C C64U, the self-cleavage turned out to be 0.224.

In the case of G39C C64G, the self-cleavage was 0.295.

As to G39U C64A, the self-cleavage was 0.649.

As to G39C U60G, the self-cleavage came to 0.185.

In the case of G39C U60C, the self-cleavage was determined as 0.415.

In the case of G39C U60A, the self-cleavage stood at 0.481.

In the case of G40U C86G, the self-cleavage came to 0.562.

With G40U C86U, the self-cleavage was determined as 0.688.

Turning to G40U C86A, the self-cleavage is 0.682.

Turning to G40A G73A, the self-cleavage worked out at 0.669.

Turning to G40A G73C, the self-cleavage worked out at 0.544.

With G39U A83C, the self-cleavage was found to be 0.157.

In the case of G39U A83U, the self-cleavage stood at 0.259.

In the case of G39U G67U, the self-cleavage is 0.727.

With G40A U60A, the self-cleavage turned out to be 1.

Consider G40A U60C, for which the self-cleavage was 1.11.

Turning to G40A C63G, the self-cleavage was 0.46.

G40A C63U: the self-cleavage stood at 0.895.

In the case of G40A C63A, the self-cleavage was 0.856.

G40C C58G: the self-cleavage was 0.264.

Take G40C C58A: the self-cleavage came out at 0.151.

As to G40A C58A, the self-cleavage amounted to 0.906.

Regarding G40A C58U, the self-cleavage was 1.18.

For G39C C85A, the self-cleavage came out at 0.203.

As for G39C C85U, the self-cleavage was determined as 0.405.

G39C C85G: the self-cleavage came to 0.298.

For the variant G40C U65A, the self-cleavage amounted to 0.326.

As for G40C U69C, the self-cleavage came to 0.158.

Take G39C U46A: the self-cleavage was found to be 0.19.

With G39C U46G, the self-cleavage was found to be 0.262.

Turning to G39C U46C, the self-cleavage amounted to 0.214.

G40U A51C: the self-cleavage was found to be 0.627.

Take G40U A51G: the self-cleavage amounted to 0.717.

Consider G40A C85G, for which the self-cleavage came out at 0.807.

For the variant G40A C85U, the self-cleavage was 1.1.

Consider G40U C75U, for which the self-cleavage came to 0.271.

Regarding G40U C75A, the self-cleavage was 0.12.

G39C C86A: the self-cleavage came out at 0.261.

On to G40C A78C, for which the self-cleavage is 0.147.

Take G39C G52U: the self-cleavage came out at 0.253.

For G39C G52A, the self-cleavage is 0.218.

In the case of G39U A43U, the self-cleavage stood at 0.148.

With G40C C49A, the self-cleavage was determined as 0.381.

Consider G40C C49U, for which the self-cleavage was determined as 0.125.

Regarding G40U A42C, the self-cleavage amounted to 0.671.

G40U G52U: the self-cleavage came out at 0.576.

As to G39U U46A, the self-cleavage came to 0.285.

For G39U U46G, the self-cleavage is 0.222.

Turning to G39U U46C, the self-cleavage amounted to 0.486.

As to G40A G68C, the self-cleavage is 0.794.

Consider G40C U46A, for which the self-cleavage was found to be 0.0339.

For G40C U46G, the self-cleavage came to 0.0831.

G39U C49G: the self-cleavage is 0.665.

For the variant G39U U72C, the self-cleavage was 0.0573.

Take G39U U72A: the self-cleavage was found to be 0.13.

Turning to G40U C57G, the self-cleavage came to 0.712.

As for G40U C57A, the self-cleavage amounted to 0.719.

In the case of G39C U69C, the self-cleavage is 0.401.

As for G39C C75U, the self-cleavage was determined as 0.0583.

In the case of G39C C75G, the self-cleavage was determined as 0.0831.

With G39C C75A, the self-cleavage was 0.142.

On to G40C A77U, for which the self-cleavage amounted to 0.128.

With G39U C41U, the self-cleavage came to 0.966.
